The target in assay [1] is SARS-CoV-2 spike, variant N501Y (B.1.1.7, British) (on virus or pseudovirus) (SARS-CoV-2, UniProt P0DTC2 14-1273). The assay is described as follows: cell-based or functional assay.
The target of assay [2] is SARS-CoV-2 spike, African variant B.1.351 (on pseudovirus) (SARS-CoV-2). Briefly: cell-based or functional assay.

B1: 9-8F2-B11 (mouse) (antibody, V domains shown)
VH: EVQLQQSGAELVKPGASVKLSCTASGFNIKETYVHWVKQRPEQGLEWIGRIDPAIGDSEYDPKFQGKATVTADTSSNTAYLQLSRLTSEDTAVYYCARTWGPFFDFWGQGTTLTVSS
VL: DVVMTQTPLSLPVSLGDQASISCRSSQSLVHSHGNTFLHWYLQKPGQSPKVLIYKVSSRFSGVPDRFSGSGAGTDFTLKISRVEAEDLGVYFCSQSTHVPYTFGGGTKLEIK
On to B1, for which, in assay [1], the “IC50 (ng/ml), pseudovirus neutralisation, British B1.1.7” value (“IC50 (ng/ml) … British B1.1.7” below) worked out at 7.7 ng/mL.

B2: 9-2H7-D7 (mouse) (antibody, V domains shown)
VH: EVQLQQSGPELVKPGASVTISCKTSGYTFTEYTMYWVKQSHGKSLEWIGGINPYIGDTSYNQNFKGKATLTVDKSSSTAYMELRSLTSEDSAVYYCARDGYPDYSAMDFWGQGTSVTVSS
VL: DIVMSQSPSSLAVSVGEKVTMNCKSSQNLLYSSNQKNYLAWYQQKPGQSPKLLIYWASTRESGVPDRFTGSGSGTDFTLTISSVKAEDLAVYSCQQYYTYPWTFGGGTKLEIK
Turning to B2, in assay [1], the “IC50 (ng/ml) … British B1.1.7” value was determined as 40 ng/mL.

B3: 9-7A4-C2 (mouse) (antibody, V domains shown)
VH: EVQLQQSGPELVKPGASVKISCKTSGYTFTEYTMYWVKQSHGKSLEWIGGINPNNGDSSYIQKFKGKATLTVDESSSTAYMELRSLTSEDSAVYYCARDGYPNSYAMDYWGQGTSVTVSS
VL: DIVMSQSPSSLAVSVGDKVTMSCKSSQSLLYSTNQKNYLAWYQQKPGQSPKLLIYWASTRESGVPDRFTGSGSGTDFTLTIGSVRPEDLAVYYCQQYYSYPWTFGGGTKLEIK
For B3, the “IC50 (ng/ml) … British B1.1.7” value in assay [1] turned out to be 18 ng/mL. Further, the “IC50 (ng/ml), pseudovirus neutralisation, African B1.1.351” value (shortened to “IC50 (ng/ml) … African B1.1.351”) in assay [2] was 20 ng/mL.

B4: 9-2H7-D7 chimera (antibody, V domains shown)
VH: EVQLQQSGPELVKPGASVTISCKTSGYTFTEYTMYWVKQSHGKSLEWIGGINPYIGDTSYNQNFKGKATLTVDKSSSTAYMELRSLTSEDSAVYYCARDGYPDYSAMDFWGQGTSVTVSS
VL: DIVMSQSPSSLAVSVGEKVTMNCKSSQNLLYSSNQKNYLAWYQQKPGQSPKLLIYWASTRESGVPDRFTGSGSGTDFTLTISSVKAEDLAVYSCQQYYTYPWTFGGGTKLEIK
Take B4: the “IC50 (ng/ml) … British B1.1.7” value in assay [1] is 11 ng/mL. Also, the “IC50 (ng/ml) … African B1.1.351” value in assay [2] was determined as 21 ng/mL.

B5: humanised 9-8F2-B11 (VH3VL3) (antibody, V domains shown)
VH: QVQLVQSGAEVKKPGASVKVSCKASGFNIKETYVHWVRQAPGQGLEWMGRIDPAIGDSEYAQKFQGRVTMTRDTSISTAYMELSRLRSDDTAVYYCARTWGPFFDFWGQGTLVTVSS
VL: DIVMTQTPLSLSVTPGQPASISCKSSQSLLHSHGNTFLHWYLQKPGQSPQVLIYKVSSRFSGVPDRFSGSGSGTDFTLKISRVEAEDVGVYYCSQSTHVPYTFGQGTKLEIK
notes: also called 9-8F2-B11 humanised
In the case of B5, in assay [1], the “IC50 (ng/ml) … British B1.1.7” value worked out at 11 ng/mL. For the same molecule, the “IC50 (ng/ml) … African B1.1.351” value in assay [2] was determined as 12000 ng/mL.
